Laboratory results: article PMC12702776 (2025)

B1: GST-GDI1 (guanosine dissociation inhibitor 1, full-length) (natural protein)
chain: MAEQEPTAEQLAQIAAENEEDEHSVNYKPPAQKSIQEIQELDKDDESLRKYKEALLGRVAVSADPNVPNVVVTGLTLVCSSAPGPLELDLTGDLESFKKQSFVLKEGVEYRIKISFRVNREIVSGMKYIQHTYRKGVKIDKTDYMVGSYGPRAEEYEFLTPVEEAPKGMLARGSYSIKSRFTDDDKTDHLSWEWNLTIKKDWKD
B2: His-IQGAP1 C794 (C-terminal 794 amino acids of IQ motif-containing GTPase-activating protein 1) (domain or fragment)
chain: PPMVVVRKFVHLLDQSDQDFQEELDLMKMREEVITLIRSNQQLENDLNLMDIKIGLLVKNKITLQDVVSHSKKLTKKNKEQLSDMMMINKQKGGLKALSKEKREKLEAYQHLFYLLQTNPTYLAKLIFQMPQNKSTKFMDSVIFTLYNYASNQREEYLLLRLFKTALQEEIKSKVDQIQEIVTGNPTVIKMVVSFNRGARGQNALRQILAPVVKEIMDDKSLNIKTDPVDIYKSWVNQMESQTGEASKLPYDVTPEQALAHEEVKTRLDSSIRNMRAVTDKFLSAIVSSVDKIPYGMRFIAKVLKDSLHEKFPDAGEDELLKIIGNLLYYRYMNPAIVAPDAFDIIDLSAGGQLTTDQRRNLGSIAKMLQHAASNKMFLGDNAHLSIINEYLSQSYQKFRRFFQTACDVPELQDKFNVDEYSDLVTLTKPVIYISIGEIINTHTLLLDHQDAIAPEHNDPIHELLDDLGEVPTIESLIGESSGNLNDPNKEALAKTEVSLTLTNKFDVPGDENAEMDARTILLNTKRLIVDVIRFQPGETLTEILETPATSEQEAEHQRAMQRRAIRDAKTPDKMKKSKSVKEDSNLTLQEKKEKIQTGLKKLTELGTVDPKNKYQELINDIARDIRNQRRYRQRRKAELVKLQQTYAALNSKATFYGEQVDYYKSYIKTCLDNLASKGKVSKKPREMKGKKSKKISLKYTAARLHEKGVLLEIEDLQVNQFKNVIFEISPTEEVGDFEVKAKFMGVQMETFMLHYQDLLQLQYEGVAVMKLFDRAKVNVNLLIFLLNKKFYGK

What was measured:
RAC1^T17N, purified [1] = target: T1, RAC1^T17N, purified (human, UniProt P63000 1-192, T17N); test: mdGDP-bound RAC1
[2] = target: T2, RAC1^WT (Ras-related C3 botulinum toxin substrate 1, wild type), purified (human, UniProt P63000 1-192); test: mdGDP-bound RAC1
RAC1^F28L, purified [3] = target: T3, RAC1^F28L, purified (human, UniProt P63000 1-192, F28L); test: mdGDP-bound RAC1
RAC1^T17N, purified [4] = target: T1, RAC1^T17N, purified; test: mGppNHp-bound RAC1
RAC1^P29S, purified = RAC1^P29S, purified (human, UniProt P63000 1-192, P29S); test: mGppNHp-bound RAC1
[5] = target: T2, RAC1^WT (Ras-related C3 botulinum toxin …); test: mGppNHp-bound RAC1
RAC1^F28L, purified [6] = target: T3, RAC1^F28L, purified; test: mGppNHp-bound RAC1

Binder | koff (RAC1^T17N, purified [1]) [s⁻¹] | koff [2] [s⁻¹] | koff (RAC1^F28L, purified [3]) [s⁻¹] | koff (RAC1^T17N, purified [4]) [s⁻¹] | koff (RAC1^P29S, purified) [s⁻¹] | koff [5] [s⁻¹] | koff (RAC1^F28L, purified [6]) [s⁻¹]
B1 | 0.038 | 0.693 | 1.03 |  |  |  | 
B2 |  |  |  | 0.0142 | 0.138 | 0.404 | 0.206
